Patent US20250049972A1, “METHOD OF DETECTING PROSTATE CANCER IN A HUMAN SUBJECT USING A Cu 64 PSMA I&T INJECTION” (Curium US LLC, priority 2023, published 2025)

Key:
[1] = Phase 1 independent reader assessment of image quality (lesion evaluation and general) of 5, 7, 9 mCi scans; assay type: in vivo, human; details: for Lesion evaluation Image Quality Score (Mean [SD]) / Number of Lesions visible: 4-hour scans
Method: The Phase 1 portion of the study included a total of 12 patients with biochemical, recurrent PC after prostatectomy or radiation therapy. Patients were randomized into 3 groups of 4 patients. Patients in a given group received a single intravenous dose of 5, 7, or 9 mCi (±10%) of copper Cu-64 PSMA I&T. Whole-body PET/CT images were acquired at 1 hour (±15 minutes), 4 hours (±30 minutes), and 24 hours (±2.0 hours) post injection.
The 1-hour and 4-hour PET/CT images were evaluated independently by 3 readers blinded to all patient information, dose administration, and times of acquisition to assess the quality of the images (24 PET/CT image sets total). In addition, readers performed all assessments in one sitting with images scrambled such that the 1- and 4-hour imaging from the same patient was […]. The imaging protocol, scanner qualification, and imaging time/bed position were identical at 1, 4 and 24 hours and kept constant regardless of dose. The assessments were used together with dose reduction modeling to determine an acceptable dose to be administered for the Phase 2 portion of the study defined as the lowest copper Cu-64 PSMA I&T dose that yielded the most clinically relevant diagnostic image quality based on expert consensus review of all measurements and overall image quality.

[2] = clinical; details: human, in vivo, total radioactivity
Method: Radiation dosimetry estimates for normal organs were determined for copper Cu-64 PSMA I&T based on biodistribution collected from the 12 patients enrolled in the trial. Whole-body PET/CT images acquired at 1 hour (±15 minutes), 4 hours (±30 minutes), and 24 hours (±2.0 hours) post injection were used together with blood samples collected prior to and 1, 2, 4, and 24 hours post injection and total voided urine samples collected for 0 to 1-hour and 1 to 4-hour intervals post injection.
Percent injected activity as a function of time was determined for the quantified organs listed below.
First, calculating Activity Quantification in PET Images utilizing the following Equation One: […]
Use of this equation can calculate organ/tissue and whole body activity concentration levels.
Second, Normalization of PET Quantification utilizing a normalization factor to decay values using urine activity utilizing the following Equation Two:
A normalization factor can be determined and applied to the decay corrected % IA values by assuming 100% quantification of the total body activity at the first time point and assuming accurate urine activity assay according to Equation Two.

[3] = design: species or system human; details: in vivo
Method: Safety was assessed in all patients following administration of copper Cu-64 PSMA I&T injection through collection of AE reporting, laboratory assessments, vital signs, and ECG. The Phase 2 portion assessed safety after copper Cu-64 PSMA I&T injection through collection of AEs 24 hours post-injection, lab assessments, vital signs, and ECGs.

[4] = Mean % Injected Dose, GI Total Contents
[5] = Mean % Injected Dose, Heart wall
[6] = Mean % Injected Dose, Lacrimal Glands
[7] = Mean % Injected Dose, Pituitary
[8] = Mean % Injected Dose, Red Marrow
[9] = Mean % Injected Dose, Salivary glands
[10] = Mean % Injected Dose, Stomach Wall
[11] = Mean % Injected Dose, Whole Body

O=C(O)CC[C@H](NC(=O)N[C@@H](CCCCNC(=O)CCCCCCC(=O)NCCCC[C@@H](NC(=O)[C@@H](Cc1ccccc1)NC(=O)[C@@H](Cc1ccc(O)c(I)c1)NC(=O)CC[C@H](C(=O)O)N1CCN(CC(=O)O)CCN(CC(=O)O)CCN(CC(=O)O)CC1)C(=O)O)C(=O)O)C(=O)O [Cu-64 PSMA I&T, 64 Cu-(3S, 7S, 26R, 29R, 32R, 37R)-29-benzyl-32(4-hydroxy-3-iodobenzyl)-5, 13, 20, 28, 31, 34-hexaoxo-37-(4,7,10-tris(carboxymethyl)-1,4,7, 10-tetraazacyclododecan-1-yl)-4,6, 12, 21, 27, 30, 33-heptaazaheptatriacontane-1,3,7, 26, 37-pentacarboxylic acid, metal not drawn]
Average general image quality across timepoints ([1]; 5 mCi (n = 4)): 1.63 (0.58)
Average general image quality across timepoints ([1]; 7 mCi (n = 4)): 1.58 (0.58)
Average general image quality across timepoints ([1]; 9 mCi): 1.71 (0.46)
Lesion evaluation Image Quality Score (Mean [SD]) ([1]; Reader 1, 5 mCi): 2.00 (0.00)
Number of Lesions visible ([1]; Reader 1, 5 mCi): 19
Lesion evaluation Image Quality Score (Mean [SD]) ([1]; Reader 1, 7 mCi): 2.00 (0.00)
Number of Lesions visible ([1]; Reader 1, 7 mCi): 15
Lesion evaluation Image Quality Score (Mean [SD]) ([1]; Reader 1, 9 mCi): 2.00 (0.00)
Number of Lesions visible ([1]; Reader 1, 9 mCi): 12
General Image Quality score (Mean [SD]) ([1]; Reader 1, 1 hour, 5 mCi (n = 4)): 2.00 (0.00)
General Image Quality score (Mean [SD]) ([1]; Reader 1, 1 hour, 7 mCi (n = 4)): 2.00 (0.00)
General Image Quality score (Mean [SD]) ([1]; Reader 1, 1 hour, 9 mCi): 1.75 (0.50)
General Image Quality score (Mean [SD]) ([1]; Reader 1, 4 hours, 5 mCi (n = 4)): 1.75 (0.50)
General Image Quality score (Mean [SD]) ([1]; Reader 1, 4 hours, 7 mCi (n = 4)): 2.00 (0.00)
General Image Quality score (Mean [SD]) ([1]; Reader 1, 4 hours, 9 mCi): 1.75 (0.50)
Lesion evaluation Image Quality Score (Mean [SD]) ([1]; Reader 2, 5 mCi): 2.00 (0.00)
Number of Lesions visible ([1]; Reader 2, 5 mCi): 17
Lesion evaluation Image Quality Score (Mean [SD]) ([1]; Reader 2, 7 mCi): 1.77 (0.44)
Number of Lesions visible ([1]; Reader 2, 7 mCi): 13
Lesion evaluation Image Quality Score (Mean [SD]) ([1]; Reader 2, 9 mCi): 2.00 (0.00)
Number of Lesions visible ([1]; Reader 2, 9 mCi): 13
General Image Quality score (Mean [SD]) ([1]; Reader 2, 1 hour, 5 mCi (n = 4)): 2.00 (0.00)
General Image Quality score (Mean [SD]) ([1]; Reader 2, 1 hour, 7 mCi (n = 4)): 1.00 (0.82)
General Image Quality score (Mean [SD]) ([1]; Reader 2, 1 hour, 9 mCi): 1.75 (0.50)
General Image Quality score (Mean [SD]) ([1]; Reader 2, 4 hours, 5 mCi (n = 4)): 2.00 (0.00)
General Image Quality score (Mean [SD]) ([1]; Reader 2, 4 hours, 7 mCi (n = 4)): 1.50 (0.58)
General Image Quality score (Mean [SD]) ([1]; Reader 2, 4 hours, 9 mCi): 2.00 (0.00)
Number of Lesions visible ([1]; Reader 3, 5 mCi): 19
Number of Lesions visible ([1]; Reader 3, 7 mCi): 12
Lesion evaluation Image Quality Score (Mean [SD]) ([1]; Reader 3, 9 mCi): 1.85 (0.38)
Number of Lesions visible ([1]; Reader 3, 9 mCi): 13
General Image Quality score (Mean [SD]) ([1]; Reader 3, 1 hour, 5 mCi (n = 4)): 1.00 (0.00)
General Image Quality score (Mean [SD]) ([1]; Reader 3, 1 hour, 7 mCi (n = 4)): 1.25 (0.50)
General Image Quality score (Mean [SD]) ([1]; Reader 3, 1 hour, 9 mCi): 1.50 (0.58)
General Image Quality score (Mean [SD]) ([1]; Reader 3, 4 hours, 5 mCi (n = 4)): 1.00 (0.82)
General Image Quality score (Mean [SD]) ([1]; Reader 3, 4 hours, 7 mCi (n = 4)): 1.75 (0.50)
General Image Quality score (Mean [SD]) ([1]; Reader 3, 4 hours, 9 mCi): 1.50 (0.58)
QIQS (general image quality), lowest score ([1]; at 4 hours, 5, 7 and 9 mCi, all readers): ≥ 1.00
tissue uptake dose at 1 h ([2]; Mean % Injected Dose, Blood): 5.8 %ID
tissue uptake dose at 2 h ([2]; Mean % Injected Dose, Blood): 4.2 %ID
tissue uptake dose at 4 h ([2]; Mean % Injected Dose, Blood): 3.2 %ID
tissue uptake dose at 24 h ([2]; Mean % Injected Dose, Blood): 4.4 %ID
tissue uptake dose at 1 h [2, 4]: 10 %ID
tissue uptake dose at 4 h [2, 4]: 10 %ID
tissue uptake dose at 24 h [2, 4]: 12 %ID
tissue uptake dose at 1 h [2, 5]: 1.2 %ID
tissue uptake dose at 4 h [2, 5]: 0.84 %ID
tissue uptake dose at 24 h [2, 5]: 0.96 %ID
tissue uptake dose at 1 h ([2]; Mean % Injected Dose, Kidneys): 8.6 %ID
tissue uptake dose at 4 h ([2]; Mean % Injected Dose, Kidneys): 5 %ID
tissue uptake dose at 24 h ([2]; Mean % Injected Dose, Kidneys): 2.1 %ID
tissue uptake dose at 1 h [2, 6]: 0.023 %ID
tissue uptake dose at 4 h [2, 6]: 0.024 %ID
tissue uptake dose at 24 h [2, 6]: 0.015 %ID
tissue uptake dose at 1 h ([2]; Mean % Injected Dose, Liver): 19 %ID
tissue uptake dose at 4 h ([2]; Mean % Injected Dose, Liver): 25 %ID
tissue uptake dose at 24 h ([2]; Mean % Injected Dose, Liver): 30 %ID
tissue uptake dose at 1 h ([2]; Mean % Injected Dose, Pancreas): 0.35 %ID
tissue uptake dose at 4 h ([2]; Mean % Injected Dose, Pancreas): 0.39 %ID
tissue uptake dose at 24 h ([2]; Mean % Injected Dose, Pancreas): 0.28 %ID
tissue uptake dose at 1 h [2, 7]: 0.0021 %ID
tissue uptake dose at 4 h [2, 7]: 0.0019 %ID
tissue uptake dose at 24 h [2, 7]: 0.0017 %ID
tissue uptake dose at 1 h ([2]; Mean % Injected Dose, Prostate): 0.036 %ID
tissue uptake dose at 4 h ([2]; Mean % Injected Dose, Prostate): 0.031 %ID
tissue uptake dose at 24 h ([2]; Mean % Injected Dose, Prostate): 0.021 %ID
tissue uptake dose at 1 h [2, 8]: 1.7 %ID
tissue uptake dose at 4 h [2, 8]: 1.4 %ID
tissue uptake dose at 24 h [2, 8]: 1.5 %ID
tissue uptake dose at 24 h ([2]; Mean % Injected Dose, Remainder): 52 %ID
tissue uptake dose at 1 h [2, 9]: 1.1 %ID
tissue uptake dose at 4 h [2, 9]: 0.95 %ID
tissue uptake dose at 24 h [2, 9]: 0.4 %ID
tissue uptake dose at 1 h ([2]; Mean % Injected Dose, Spleen): 1.5 %ID
tissue uptake dose at 4 h ([2]; Mean % Injected Dose, Spleen): 0.54 %ID
tissue uptake dose at 24 h ([2]; Mean % Injected Dose, Spleen): 0.29 %ID
tissue uptake dose at 1 h [2, 10]: 0.52 %ID
tissue uptake dose at 4 h [2, 10]: 0.51 %ID
tissue uptake dose at 24 h [2, 10]: 0.42 %ID
tissue uptake dose at 1 h ([2]; Mean % Injected Dose, Testes): 0.11 %ID
tissue uptake dose at 4 h ([2]; Mean % Injected Dose, Testes): 0.1 %ID
tissue uptake dose at 24 h ([2]; Mean % Injected Dose, Testes): 0.065 %ID
tissue uptake dose at 1 h ([2]; Mean % Injected Dose, Thyroid): 0.031 %ID
tissue uptake dose at 4 h ([2]; Mean % Injected Dose, Thyroid): 0.019 %ID
tissue uptake dose at 24 h ([2]; Mean % Injected Dose, Thyroid): 0.016 %ID
tissue uptake dose at 1 h [2, 11]: 96 %ID
tissue uptake dose at 4 h [2, 11]: 87 %ID
tissue uptake dose at 24 h [2, 11]: 81 %ID
total activity recovery (whole-body PET plus urine), % of injected activity at 1 hour ([2]; sum of unnormalized activity recovery from whole body PET quantification and urinary excretion, % of the injected activity): 101%
patients who experienced at least 1 AE [3]: 2
relationship of the adverse events to study product [3]: not related
serious adverse events attributed to the injection [3]: No serious adverse events
seriousness of the adverse events [3]: not serious
severity of the adverse events [3]: mild
